# IntAct's records for PubMed 23354168
# B1: Ephrin-B2 (Mus musculus), P52800 (parent)
# chain: MAMARSRRDSVWKYCWGLLMVLCRTAISRSIVLEPIYWNSSNSKFLPGQGLVLYPQIGDKLDIICPKVDSKTVGQYEYYKVYMVDKDQADRCTIKKENTPLLNCARPDQDVKFTIKFQEFSPNLWGLEFQKNKDYYIISTSNGSLEGLDNQEGGVCQTRAMKILMKVGQDASSAGSARNHGPTRRPELEAGTNGRSSTTSPFVKPNPGSSTDGNSAGHSGNNLLGSEVALFAGIASGCIIFIVIIITLVVLLLKYRRRHRKHSPQHTTTLSLSTLATPKRGGNNNGSEPSDVIIPLRTADSVFCPHYEKVSGDYGHPVYIVQEMPPQSPANIYYKV
# partner: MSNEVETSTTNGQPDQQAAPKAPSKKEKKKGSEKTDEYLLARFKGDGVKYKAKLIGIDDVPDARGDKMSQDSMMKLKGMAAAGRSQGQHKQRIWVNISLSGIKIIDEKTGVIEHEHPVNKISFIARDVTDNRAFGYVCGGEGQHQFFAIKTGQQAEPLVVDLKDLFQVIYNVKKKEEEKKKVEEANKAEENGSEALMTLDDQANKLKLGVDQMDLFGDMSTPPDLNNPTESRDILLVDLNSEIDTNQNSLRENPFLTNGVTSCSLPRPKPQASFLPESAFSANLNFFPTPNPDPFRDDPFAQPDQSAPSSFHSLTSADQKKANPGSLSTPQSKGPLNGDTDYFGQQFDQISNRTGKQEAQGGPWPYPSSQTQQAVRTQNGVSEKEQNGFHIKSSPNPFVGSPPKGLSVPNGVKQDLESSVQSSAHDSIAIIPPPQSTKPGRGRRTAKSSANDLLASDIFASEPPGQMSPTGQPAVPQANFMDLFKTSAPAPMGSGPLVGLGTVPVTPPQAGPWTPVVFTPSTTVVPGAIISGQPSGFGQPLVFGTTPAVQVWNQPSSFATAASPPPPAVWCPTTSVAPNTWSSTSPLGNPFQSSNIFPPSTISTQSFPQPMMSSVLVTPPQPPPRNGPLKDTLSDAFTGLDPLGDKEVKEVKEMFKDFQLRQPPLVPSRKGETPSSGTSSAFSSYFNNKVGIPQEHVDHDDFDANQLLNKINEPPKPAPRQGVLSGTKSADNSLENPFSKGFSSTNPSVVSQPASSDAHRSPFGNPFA
# Variants of: B1
# Conditions: with dab2_rat Dab2, O88797
row,effect of a mutation on the interaction,Variant
1,disrupting interaction strength,V336S
